Test results taken from publication PMC2787876 (Journal of molecular biology, 2009).
Residue numbers refer to the chain shown, from its start. Each block holds one binder with its values, some of them ahead of it.

Biological target: light activated unphosphorylated rhodopsin (UniProt P02699 1-348, retinal chromophore, light-activated)
Test: dissociation of the complex after dilution

light activated unphosphorylated rhodopsin, sequence (P02699 whole entry): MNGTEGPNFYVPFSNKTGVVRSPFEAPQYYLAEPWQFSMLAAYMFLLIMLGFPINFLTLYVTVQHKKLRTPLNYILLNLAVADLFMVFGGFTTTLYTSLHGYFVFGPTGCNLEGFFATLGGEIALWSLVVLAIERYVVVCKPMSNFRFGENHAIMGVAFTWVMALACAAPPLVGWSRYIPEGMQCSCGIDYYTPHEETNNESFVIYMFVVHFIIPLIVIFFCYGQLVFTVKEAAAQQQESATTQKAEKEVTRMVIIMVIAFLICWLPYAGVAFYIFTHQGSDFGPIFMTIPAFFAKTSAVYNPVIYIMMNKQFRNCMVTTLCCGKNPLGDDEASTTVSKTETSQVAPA

half-life of the complex (t1/2): 1.2 ± 0.117 h
B1: arrestin1 2A-3A-h3A (natural protein, bovine, UniProt P08168 1-404, looked up)
chain: MKANKPAPNHVIFKKISRDKSVTIYLGKRDYIDHVERVEPVDGAVAVDPELVKGKRVYVSLTCAFRYGQEDIDVMGLSFRRDLYFSQVQVFPPVGASGATTRAQESAIKKAGANTYPFLLTFPDYLPCSVMLQPAPQDVGKSCGVDFEIKAFATHSTDVEEDKIPKKSSVRLLIRKVQHAPRDMGPQPRAEASWQFFMSDKPLRLAVSLSKEIYYHGEPIPVTVAVTNSTEKTVKKIKVLVEQVTNVVLYSSDYYIKTVAAEEAQEKVPPNSSLTKTLTLVPLLANNRERRGIALDGKIKHEDTNLASSTIIKEGIDKTVMGILVSYQIKVKLTVSGLLGELTSSEVATEVPFRLMHPQPEDPDTAKESFQDENAAAEEFARQNLKDAGEYKEEKTDQEAAMDE
modifications: [3H]leucine and [14C]leucine incorporated

half-life of the complex (t1/2): 1.28 ± 0.15 h
B2: arrestin1 h3A on the background of the 3A mutation (natural protein, bovine, UniProt P08168 1-404, looked up)
chain: B1 chain with A44V, A46L
modifications: [3H]leucine and [14C]leucine incorporated
